Data: US20250043302A1, “MUTATED HYDROXYPHENYLPYRUVATE DIOXYGENASE POLYPEPTIDE, AND CODING GENE AND USE THEREOF” (BEIJING DABEINONG BIOTECHNOLOGY CO., LTD., priority 2021, published 2025)

Assays:
Format in all cases: in vivo
[1] = tested on: Arabidopsis thaliana T1 plants; experiment: Topramezone tolerance of transgenic Arabidopsis thaliana T1 plants (spray, bleached leaf area grade, damage score); settings: Table 10; for Classification and statistics of the grade of pesticide damage Grade 0: number of plants at grade 0; for Classification and statistics of the grade of pesticide damage Grade 1: number of plants at grade 1; for Classification and statistics of the grade of pesticide damage Grade 2: number of plants at grade 2; for Classification and statistics of the grade of pesticide damage Grade 3: number of plants at grade 3; for Scores: pesticide damage score
Summary of the method: (§1)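 Damage graded 0–3 from the proportion of bleached leaf area 7 days after spraying. Plants were glufosinate-selected T1 lines, 18 days after sowing, plus vector and wild-type controls. Rates: mesotrione 52.5–420, isoxaflutole 35–280, topramezone 25–200 g ai/ha, with water (0×).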

[2] = tested on: Arabidopsis thaliana T1 plants; experiment: Mesotrione tolerance of transgenic Arabidopsis thaliana T1 plants (spray, bleached leaf area grade, damage score); parameters: Scores: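 damage score 0-100 computed as Σ(N×S)/(T×M)×100 over grades 0-3 with higher meaning more damage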; settings: Table 12; for Classification and statistics of the grade of pesticide damage Grade 0: number of plants at grade 0; for Classification and statistics of the grade of pesticide damage Grade 1: number of plants at grade 1; for Classification and statistics of the grade of pesticide damage Grade 2: number of plants at grade 2; for Classification and statistics of the grade of pesticide damage Grade 3: number of plants at grade 3; for Scores: pesticide damage score
Summary of the method: as §1

[3] = tested on: Arabidopsis thaliana T1 plants; experiment: Isoxaflutole tolerance of transgenic Arabidopsis thaliana T1 plants (spray, bleached leaf area grade, damage score); settings: Table 11; for Classification and statistics of the grade of pesticide damage Grade 0: number of plants at grade 0; for Classification and statistics of the grade of pesticide damage Grade 1: number of plants at grade 1; for Classification and statistics of the grade of pesticide damage Grade 2: number of plants at grade 2; for Classification and statistics of the grade of pesticide damage Grade 3: number of plants at grade 3; for Scores: pesticide damage score;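 for Scores: Weighted damage index from 0 to 100 where higher means more damage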
Summary of the method: as §1

B1: HPPDm-4-02: nucleotide sequence encoding Avena sativa HPPD with A107 deletion+K351N+F372A+F383W; vector DBN11785 (nucleic acid)
DNA: ATGCCACCTACTCCAGCTACAGCTACTGGTGCTGCTGCTGCTGCCGTTACTCCTGAGCACGCTGCCAGGTCATTCCCCAGGGTGGTTCGCGTGAACCCCAGATCTGATAGGTTCCCAGTTCTGAGCTTCCACCATGTTGAGCTGTGGTGCGCTGATGCTGCTTCTGCTGCTGGCAGGTTCTCTTTCGCTCTTGGTGCTCCACTCGCTGCTAGATCTGATCTGTCTACAGGAAATAGCGCTCATGCCTCACTCCTGCTTCGCTCAGGTGCTTTGGCCTTCCTCTTCACCGCTCCATATGCTCCCCCACCTCAGGAGGCTACTGCTGCTGCTACAGCCTCCATTCCAAGCTTCTCAGCTGATGCCGCTAGAACCTTCGCTGCTGCTCATGGACTTGCCGTGAGGTCTGTTGGTGTTCGCGTGGCTGATGCTGCTGAGGCTTTCAGAGTTTCCGTTGCCGGCGGAGCTAGGCCAGCTTTCGCTCCTGCTGATTTGGGACATGGTTTCGGCCTGGCTGAGGTTGAGCTTTACGGTGACGTGGTTCTCCGCTTCGTGTCTTACCCAGATGAGACTGACCTGCCTTTCCTTCCCGGCTTCGAGAGAGTTTCCTCTCCTGGTGCCGTGGATTACGGCCTGACAAGGTTCGACCACGTGGTTGGAAACGTTCCCGAGATGGCTCCAGTGATCGATTACATGAAGGGCTTCCTTGGATTCCATGAGTTCGCCGAGTTCACTGCTGAGGACGTGGGAACCACTGAGTCCGGTTTGAACTCTGTGGTTCTCGCCAACAATTCTGAGGCTGTTTTGCTCCCTCTGAATGAGCCTGTGCATGGAACCAAGAGGAGAAGCCAGATTCAAACTTACCTGGAGTACCACGGTGGCCCTGGAGTTCAGCATATCGCCCTTGCTTCTAATGATGTGTTGCGCACACTCAGAGAGATGCGCGCCAGAACCCCCATGGGAGGTTTCGAGTTCATGGCCCCACCACAGGCTAAGTACTACGAGGGCGTTAGAAGGATTGCTGGAGACGTGTTGAGCGAGGAGCAGATCAATGAGTGCCAAGAGCTGGGTGTTCTTGTGGATAGGGATGACCAGGGCGTTCTGCTTCAAATTGCCACTAAGCCAGTGGGCGACCGCCCTACATTCTGGCTTGAGATGATTCAAAGAATCGGCTGCATGGAGAAGGATGAGGTTGGACAGGAGTACCAAAAGGGCGGATGCGGTGGCTTCGGAAAGGGTAACTTCAGCGAGTTGTTCAAGTCAATCGAGGACTACGAGAAGAGCCTCGAGGTGAAGCAGTCAGTGGTTGCCCAAAAGTCCTGA
modifications: HPPDm-4-02 Nucleotide Sequence
notes: vector DBN11785
- Resistance evaluation ([1]; topramezone 100 g ai/ha (4×)): Highly resistant
- Classification and statistics of the grade of pesticide damage Grade 0 ([1]; topramezone 100 g ai/ha (4×)): 16
- Classification and statistics of the grade of pesticide damage Grade 1 ([1]; topramezone 100 g ai/ha (4×)): 0
- Classification and statistics of the grade of pesticide damage Grade 2 ([1]; topramezone 100 g ai/ha (4×)): 0
- Classification and statistics of the grade of pesticide damage Grade 3 ([1]; topramezone 100 g ai/ha (4×)): 0
- Scores ([1]; topramezone 100 g ai/ha (4×)): 0
- Resistance evaluation ([1]; topramezone 200 g ai/ha (8×)): Highly resistant
- Classification and statistics of the grade of pesticide damage Grade 0 ([1]; topramezone 200 g ai/ha (8×)): 16
- Classification and statistics of the grade of pesticide damage Grade 1 ([1]; topramezone 200 g ai/ha (8×)): 0
- Classification and statistics of the grade of pesticide damage Grade 2 ([1]; topramezone 200 g ai/ha (8×)): 0
- Classification and statistics of the grade of pesticide damage Grade 3 ([1]; topramezone 200 g ai/ha (8×)): 0
- Scores ([1]; topramezone 200 g ai/ha (8×)): 0
- Resistance evaluation ([2]; mesotrione 210 g ai/ha (2×)): Highly resistant
- Classification and statistics of the grade of pesticide damage Grade 0 ([2]; mesotrione 210 g ai/ha (2×)): 16
- Classification and statistics of the grade of pesticide damage Grade 1 ([2]; mesotrione 210 g ai/ha (2×)): 0
- Classification and statistics of the grade of pesticide damage Grade 2 ([2]; mesotrione 210 g ai/ha (2×)): 0
- Classification and statistics of the grade of pesticide damage Grade 3 ([2]; mesotrione 210 g ai/ha (2×)): 0
- Scores ([2]; mesotrione 210 g ai/ha (2×)): 0
- Resistance evaluation ([2]; mesotrione 420 g ai/ha (4×)): Highly resistant
- Classification and statistics of the grade of pesticide damage Grade 0 ([2]; mesotrione 420 g ai/ha (4×)): 15
- Classification and statistics of the grade of pesticide damage Grade 1 ([2]; mesotrione 420 g ai/ha (4×)): 1
- Classification and statistics of the grade of pesticide damage Grade 2 ([2]; mesotrione 420 g ai/ha (4×)): 0
- Classification and statistics of the grade of pesticide damage Grade 3 ([2]; mesotrione 420 g ai/ha (4×)): 0
- Scores ([2]; mesotrione 420 g ai/ha (4×)): 2
- Resistance evaluation ([3]; isoxaflutole 140 g ai/ha (2×)): Highly resistant
- Classification and statistics of the grade of pesticide damage Grade 0 ([3]; isoxaflutole 140 g ai/ha (2×)): 16
- Classification and statistics of the grade of pesticide damage Grade 1 ([3]; isoxaflutole 140 g ai/ha (2×)): 0
- Classification and statistics of the grade of pesticide damage Grade 2 ([3]; isoxaflutole 140 g ai/ha (2×)): 0
- Classification and statistics of the grade of pesticide damage Grade 3 ([3]; isoxaflutole 140 g ai/ha (2×)): 0
- Scores ([3]; isoxaflutole 140 g ai/ha (2×)): 0
- Resistance evaluation ([3]; isoxaflutole 280 g ai/ha (4×)): Highly resistant
- Classification and statistics of the grade of pesticide damage Grade 0 ([3]; isoxaflutole 280 g ai/ha (4×)): 13
- Classification and statistics of the grade of pesticide damage Grade 1 ([3]; isoxaflutole 280 g ai/ha (4×)): 3
- Classification and statistics of the grade of pesticide damage Grade 2 ([3]; isoxaflutole 280 g ai/ha (4×)): 0
- Classification and statistics of the grade of pesticide damage Grade 3 ([3]; isoxaflutole 280 g ai/ha (4×)): 0
- Scores ([3]; isoxaflutole 280 g ai/ha (4×)): 6
